Results from the nanobody polyreactivity screen of Harvey et al. (2022).

Test: yeast display, Sf9 membrane polyspecificity reagent, FACS + sequencing; frameworks hold sequencing errors
How it was run: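 Galactose induction of a Saccharomyces cerevisiae BJ5465 synthetic nanobody display library ran 36–48 hours. The cells were then stained for 1 hour at 4 °C with 10% biotinylated, detergent-solubilized Sf9 membrane reagent, pulled down on streptavidin microbeads and FACS-sorted into low and high (top ~1%) gates on expression and reagent-binding fluorescence. Labels for polyreactivity follow the gate of origin.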

Sequence	polyreactivity (PSR sort gate)
QVQLVESGGGLVQAGGSLRLSCAASGRIFFDYAMGWYRQAPGKERELVADIDWSGGITYYADSVKGRFTISRDNAKNTVYLQMNSLIPEDTAVYYCAADFDELYPTTAYGEFEYWGQGTQVTVSS	high polyreactivity
QVQLVESGGGLVQAGGSLRLSCAASGRIFKVNAMGWYRQAPGKERELVAAITRGGRTYADSVKGRFTISRDNAKNTVYLQMNSLKPEDTAVYYCAADVLEGWFKRYYYWGQGTQVTVSS	high polyreactivity
QVQLVESGGGLVQAGGSLRLSCAASGRIFYSNAMGWYRPAPGKERELVAGITISGGSTYYADSVKGRFTISRDYAKNTVSLQMNSLKPEDTAVYYCNARYLRRGDYGGQGTQVTVSS	low polyreactivity
QVQLVESGGGLVQAGGSLRLSCAASGFTFRTYAMGWYRQAPGKERELVAAITGRGSNTYYADSVKGRFTISRDNAKNTVYLQMNSLKPEDTAVYYCNARYYDYRVALRYDYWGQGTQVTVSS	high polyreactivity
QVQLVESGGGLVQAGGSLRLSCAASGRIFRNAMGWYRQAPGKERELVAAISSGGSTNYADSVKGRFTISRDNAKNTVYLQMNSLKPEDTAVYYCAADWDWWYQEFDYWGQGTQVTVSS	high polyreactivity
QVQLVESGGGLVQAGGSLRLSCAASGIIFFNNVMGWYRQAPGKERVLVAGITYTGGSTYYADSVKGRFTISRDNAKNTVYLHMNSLKPEDTAVYNCNKDYANTRRVTEYDYWGQGTQVTVSS	low polyreactivity
QVQLVESGGGLVQAGGSLPLSCAASGSIFLYNAMGWYRQAPGKERELVAGITFIGGSTYYADSVKGRFTISRDNAKNSVYLQMNSLKPEDTAVYYCNRLGVYWVGTEFDYWGQGTQVTLSS	low polyreactivity
QVQLVESGGGLVQAGGSLRLSCAASAIILQRNDMGRYRQAPGKERELVANIRDGGITFADSVKGRFTISRDNAKNTVYLQMNSLKPEDTAVYYCARDDTSPGYGDQSSNAAYYYWGQGTQVTVSS	low polyreactivity
QVQLLESGGGLVQSGGSLRLTCAASGFTFRGYAMGWYRQAPGKERELVAAISWNGGRTYADSVKGRFTITRDNAKYTVYLQMNSLKPEDTAVYYCNAVKFGATAYDYWGQGTQVTVSS	high polyreactivity
QVQLVESGGGLVHAGGSLRLSCAASGFTFRGYAMGWYRPSPGKEREFVAAISRSGGSTNYADSVKGRFTISRDNAKNTVYLQMNSLKPEDTAVYYCAAGWNPYDYWGQGTQVTVSS	high polyreactivity
QVQLVESGGGLVQAGGSLRLSCAASGSIFINNGMGWYRQAPGKERELVAAINGGDGSTYYADSVKGRFTISRDNAKNTVYLQMNSLKPEDTAVYYCAKDYTIGYTYQYDYWGQGTQVTVSS	low polyreactivity
QVQLVESGGGLVQAGGSLRLSCAASGRTFPYNAMGWYRQAPGKERELVAAITQSAGRTYYADSVKGRFTISRDTAKYTVYFQMNSLKPEDTAVYYCNTVTVAYGYTRLYAQYYYWGQGTQVTVSS	high polyreactivity
QVQLVESGGGLVQAGGILRLSCAASGRIFSSYSMGWYRQAPGKESELVAAISRSGARTYYADSVKGRFTISRDYAKNTVYLQMNSLKPEDTAVYYCAAVTVAGYDYWGQGTQVTVSS	high polyreactivity
QVQLVESGGGLVQAGGSLRLSCAASGRICGYNSMGWYRQAPGKERELVAAISSSGGSTYYADSVKGRFTISRDYATNTVYVQMNSLKREATAVYYCAARIGYRSWAWDAYEYCGQGTQVTVSS	low polyreactivity
QVQLVDSGGGLVQAGCSLRISCAASGSIYTTYAMGWYRQAPGKERELVAALTRSGGRTYYADSVKGRFTISRDNAKYTVYLQMTSLKPEDTAVDDCNAYGYRTWWDDFKLDYWGQGTQVTVSS	high polyreactivity
QVQLVESGGGLVQEGGSLRLSCAASGLIFNRYAMGWYRQAPGKERELVAAITSRGGRTYYADSVKGRFTISRDNAKNTVYLQMNSLKPEDTAVYYCNRTPTGSYLYGMDYWGQGTQVTVSS	high polyreactivity
QVQLVESGGGLVQAGGSLRLSCAASGRIFYRNAMGWYRQAAGKERELVAGITRGGSTNYADSVKGRFTISRDNAKNTDYLQMNSLKPEETAVYYCAKAIPAKFYSEAGYDYWGQGTQVTVSS	low polyreactivity
QVQLVESGGGLVQAGRSLRLSCAASGFIFDWNAMGWYRQAPGKERELVAAISWSGGRTYYADSVKGRFTISRDNAKNTVYLQMNSLKPEDTAVYYCNARRYFSRDTSGYNYWGQGTQVTVSS	high polyreactivity
QVQLVESGGGLVQAGGSLRLSCAASGRTFSGYAMGGDIQAPGKERELVAAITARSGSTYYADSVKGRFTISRDNAKNTVYLLMNSLKPEDTAVYYCNAPRYAARFDYWGQGTQVTVSS	high polyreactivity
QVQLVESGGGLVQAGGSLRLSCAASGRTFGGNAMGWYRQAPGKERELVAAISSGGSTNYADSVKGRFTISRDNANNTVYLQMNSLKPEDTAVYYCAARGPYWGQGTQVTVSS	low polyreactivity
QVQLVESAGGLVQAGGSLSLSCAASGTFYLYARGWYRQAPGKQRELVAAISGSGSTNYADSVKGRFTISRDNAKNTVYLQMNSLKPEDTAVYYCAAYQRYDSVTGARYEYDYWGQGTQVTVSS	low polyreactivity
QVQLVESGGGLVQAGGSLRLSCAASGFTFYEYSMGWYRQAPGKERELVAAINWNGGRTYYADSVKGRFTISRDNAKNTVYLQMNSLKPEDTAVYYCAARVAPKTKIYRRYYWGQGTQVTVSS	high polyreactivity

Sequence	polyreactivity (PSR sort gate)
QVQLVESGGGLVQAGGSLRLSCASSGSTFSYYTMGWNRQAPGKERELVAAITRSGGRTYYADSVKGRFTISRDNAKNTVYLQMNSLKPEDTAVYNCAAYRANSGEFDYWGQGTQVTVTS	high polyreactivity
QVQLVESGGGLVQAGGSLRLSCAASGGTLKYYAMGLYRQAPGKERELVATISSRGGSTYYADSVKGRFTISRDNAKNTVYLQMNSLKPEDTAVYYCARRYWVQSRYPEMDYWGQGTQVTVSS	high polyreactivity
QVQLVESGGGLVQAGGSLRLSCAASGSTFNDYAMGWYRQAPGKERELVASIRYSGGGTYYADSVKGRFTISRDNAKNTVYLQMNSLKPEDTAVYYCAKDTHLLNEHSGTSREYDYWGQGTQVTVSS	low polyreactivity
QVQLVESGGGLVQAGGRLRLISAASGSIFYYNAMGWYRQAPGKERELVAAISWSADSTYYADSVKGRFTISRDNAKNTVYLQMNSLKPEDSAAYYCNTDLVPWTEYWYDYWGQGTQVTVSS	low polyreactivity
QVQLVESGGGLVQAGGSLRLSCAASGSIFFRYATMGWYRHAPGKESELVAAISRSGGSTYYADSVKGRFTISRDNGKNTVYLQMNSLKPEDTAVYYCAKVSPSLRASGYDYWGQGTQLTVSS	high polyreactivity
QVQLVESGGGLVQAGGSLRLSCAASGSIFRKYPMGWYRQAPGKDTELVAAISKRGGSTYYADSVKGRFTISRDNAKNTVYLQMNSLKPEDTAVYYFNALRRYVSVRPTKSDYWGQGTQVTVSS	high polyreactivity
QVQLVESGGGIVQAGGSLRLSCAASGSIDWNAKGWYRQAPGKEREFVAAISSSGGRTSYADSVKGRFTISRDNAKNTVYLEMNSLKPEDTAVYYGAAAGSYDGDRYYYWGQGTQVTVSS	high polyreactivity
QVQLVESGGGLVQARGSLRLSCAASGLTSRYYAMGWYRQAPGKERELVAAISSRGGRTYYADSVKGPFTISRDNAKNTVYLQMNSLQPEDTAVYYCYAAAGAYSFLSTYNRGEEYWGQGTQVTVSS	high polyreactivity
QVQLVESGGGLVQAGGSLRLSCAASGSIFDGYALGWYRQAPGKEREFVAAIDTGDTRTYYADSVKGRFTISRDNAKNTVYLQMNSLKPEDTAVYYCNADDWAYGMDYWGQGTQVTVSS	low polyreactivity
QVQLVESGGGLVQAGGSLRLSCEASGRIFDDNDMGWYRQAPGKERELVAAISSGDSTKYADSVKGRFTITRDNAKNTVYLQMNSLKPEDTAVYYCAAERNHGLVGSESVGRNDYWGQGTQVTVSS	low polyreactivity
QVQLVESGGGLVQAGGRLRLSCAASGRTFYVYAMGWYRQAPGKERELVAAISWTGGSTYYADSVKGRFTISRDHAKNTVYLQMNSLKPEDTAVYDCAVDVYRRDYVAYEYWGQGTQVTVSS	high polyreactivity
QVQLVESGGGLVQAGGSLRLSCAASGSTFVYYAMGWYRQAPGKETEFVAAISISSGSTYYADSVKGRFTISRDNAKNTVYLQMNSLKPEDTAVYYCAVDWFLGGYDDLDYWGQGTQVTVSS	low polyreactivity
QVQLVESGGGLVQAGGSLRLSCAASGSIFFSNAMGWYRQAPGKERELVAAITSTGGSTYYADSVKGRFTISRDNAKNTVDLQMNSLKPEDTAVYYCAAASRRGYYYWGQGTQVTVSS	high polyreactivity
QVKLVESGGGLVQAGGSLRLSCAASGITFVLYAMRWYRQAPGKERELVASITWDATDTYYADSVKGRFTISRDNAKNTVYLQMNSLKPEDTAVYYCNAAYFNYWWLEYDYWGQGTQVTVSS	high polyreactivity
QVQLVESGGGLVQAGGSLRLSCAASGFTFSWYAMGWYRPAPGKERELVAAISWDGDSTYYADSVKGRFTISRDNAKNTVYLQMNSLIPEDTAVYYCAADFYYYWDGYDYWGQGTQVTVSS	high polyreactivity
QVQLVESGGGLVQAGGSLRLSCAASGRIFGGYAMGWYRPAPGKERELVAAISSRGGSTYYADSVKGRFTISRDNAKNTVYLQMNSLKPEDTAVYYCAADGRVKGWGQGTQVTVSS	high polyreactivity
QVQLVESGGGLVQAGGSLRLSCAASGLIFYAYAMGWYRQAPGKERELVAAISGSGGNTYYADSVKGRFTISRDNAKNTVYLQMNSLKPEDTAVYYCAADYTAAYPDSMYYWGQGTQVTVSS	low polyreactivity
QVQLLESGGGLVQAGGSLRISCASSVRISPRYAMGWYRQAPGKERELVAAIDTSDGTTYYADSVKGRFTISRDNAMKTVYFQMNSLKPEDTAVYYCAAEGQLFDLYDYWGHGTQVTVSS	low polyreactivity
QEQLQESGSGLVQAGGSLRLSCAASGNIFQDWVMGWYRKAPGQERELVAAISPGAITYYADSVKGRFTISRDNAKNSVYLQTKSLKPEDTAVYYCGAYYIVEYLHGYWGQGTRVTVSS	low polyreactivity
QVQLVESGGGLVQAGGNLRLSCAASGFKFTSYAMGCYIQAPGKERELVAAISTSGDRTYYADSVKGRFTISRDNAKNTVYLQMNSLQPEDTAVYYSAVVRPRSVVRYDSWGQGTQVTVSS	high polyreactivity
QVQLVESGGGLVQAGGSLRLSCAASGLTLVTYAMGWYRQAPGNERELVAAINSGGSTNYADSVKGRFTISRDNAKNTVYLQMNSLKPEDTAVYYCNADRVSPATYDYWGQGTQVTVSS	low polyreactivity
